Laboratory results from the supplement of paper PMC6757056.
± gives the standard deviation of the averaged measurements.

B1: library; a variant is named by its letters at N, in order (parent)
chain: GCUGUCACCGGUGCUUGGUACGUUAUAUUCAGCCGGUCUGAUGAGUCUNNNNNNAGACGAAACAGC

How the values were obtained:
[1] = variants of: B1; experiment: FACS-Seq fitted mean relative fluorescence mCherry/BFP without ligand (log10 relative fluorescence); HEK293T overexpressing SLC46A1; higher = higher reporter protein expression; conditions: without (6R,S)-folinic acid; ligand present: no
Procedure, shortened: (§1)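 An mCherry reporter containing the ribozyme switch and an EF1α-BFP marker were introduced by lentivirus into HEK293T libraries. Cells were enriched, incubated 48 h with or without ligand, sorted into 6 bins by mCherry/BFP, and bin genomic DNA was PCR-amplified, barcoded and sequenced on MiSeq. Fluorescence represents the normalized fitted normal mean of the bin counts. Fitting was done on log10(mCherry/BFP), scaling to five spiked-in control ribozymes.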

[2] = variants of: B1; experiment: normalized RNA/DNA level without ligand (relative to sTRSVctl = 100) (log10 (% of sTRSVctl)); HEK293T overexpressing SLC46A1; higher = less ribozyme self-cleavage, higher mRNA level; conditions: without (6R,S)-folinic acid; ligand present: no
Procedure, shortened: (§2)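 Ribozyme switch library plasmids linked to reporters were introduced into HEK293T cells at 4 µg per 6-well well, with ligand, if any, added 1 h before. Total RNA was extracted with EDTA 72 h later, reverse-transcribed, amplified, barcoded and sequenced. RNA level was computed from RNA over DNA reads relative to a spiked-in non-cleaving sequence or the top sequences, then scaled and log-transformed. The top set was 25 sequences, values were ×100 and log10, and the cutoff was ≥100 DNA reads.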

[3] = variants of: B1; experiment: FACS-Seq fitted mean relative fluorescence mCherry/BFP with ligand (log10 relative fluorescence); HEK293T overexpressing SLC46A1; ligand concentration (+) FACS-Seq: 6 mM; higher = higher reporter protein expression; conditions: with (6R,S)-folinic acid; ligand present: yes
Procedure, shortened: as §1

[4] = variants of: B1; experiment: normalized RNA/DNA level with ligand (relative to sTRSVctl = 100) (log10 (% of sTRSVctl)); HEK293T overexpressing SLC46A1; ligand concentration (+) RNA-Seq: 6 mM; higher = less ribozyme self-cleavage, higher mRNA level; conditions: with (6R,S)-folinic acid; ligand present: yes
Procedure, shortened: as §2

Variant	FACS-Seq fitted mean (log10) [1]	normalized RNA/DNA level without ligand (log10) [2]	FACS-Seq fitted mean (log10) [3]	normalized RNA/DNA level with ligand (log10) [4]
GCUGUCACCGGUGCUUGGUACGUUAUAUUCAGCCGGUCUGAUGAGUCUAAGUAGAGACGAAACAGC [AAGUAG]	0.445 ± 0.099	1.89 ± 0.021	0.443 ± 0.18	1.987 ± 0.018
GCUGUCACCGGUGCUUGGUACGUUAUAUUCAGCCGGUCUGAUGAGUCUGAGUAGAGACGAAACAGC [GAGUAG]	0.282 ± 0.0024	1.936 ± 0.017	0.0667 ± 0.095	1.99 ± 0.034
GCUGUCACCGGUGCUUGGUACGUUAUAUUCAGCCGGUCUGAUGAGUCUUAGUAGAGACGAAACAGC [UAGUAG]	0.108 ± 0.076	1.68 ± 0.011	0.525 ± 0.14	1.93 ± 0.036
GCUGUCACCGGUGCUUGGUACGUUAUAUUCAGCCGGUCUGAUGAGUCUUAGUAUAGACGAAACAGC [UAGUAU]	0.347 ± 0.059	1.931 ± 0.0038	0.553 ± 0.11	2.006 ± 0.018
GCUGUCACCGGUGCUUGGUACGUUAUAUUCAGCCGGUCUGAUGAGUCUGAGUCAAGACGAAACAGC [GAGUCA]	-0.101 ± 0.0028	1.998 ± 0.011	-0.24 ± 0.16	2.01 ± 0.0086
GCUGUCACCGGUGCUUGGUACGUUAUAUUCAGCCGGUCUGAUGAGUCUGAGUCCAGACGAAACAGC [GAGUCC]	0.0836 ± 0.051	2.04 ± 0.027	0.569 ± 0.064	2.04 ± 0.03
GCUGUCACCGGUGCUUGGUACGUUAUAUUCAGCCGGUCUGAUGAGUCUCAGUCGAGACGAAACAGC [CAGUCG]	0.4924 ± 0.0036	2.022 ± 0.01	0.422 ± 0.19	2.037 ± 0.018
GCUGUCACCGGUGCUUGGUACGUUAUAUUCAGCCGGUCUGAUGAGUCUAAGUCGAGACGAAACAGC [AAGUCG]	-0.00669 ± 0.0044	1.978 ± 0.0045	0.183 ± 0.19	2.0217 ± 0.00076
GCUGUCACCGGUGCUUGGUACGUUAUAUUCAGCCGGUCUGAUGAGUCUAAGUGAAGACGAAACAGC [AAGUGA]	0.288 ± 0.021	1.952 ± 0.003	0.42 ± 0.11	2.03 ± 0.021
GCUGUCACCGGUGCUUGGUACGUUAUAUUCAGCCGGUCUGAUGAGUCUGAGUGAAGACGAAACAGC [GAGUGA]	0.213 ± 0.11	1.96 ± 0.023	0.443 ± 0.15	2 ± 0.043
GCUGUCACCGGUGCUUGGUACGUUAUAUUCAGCCGGUCUGAUGAGUCUGAGUGCAGACGAAACAGC [GAGUGC]	0.283 ± 0.14	1.944 ± 0.0043	0.338 ± 0.15	2.03 ± 0.039
GCUGUCACCGGUGCUUGGUACGUUAUAUUCAGCCGGUCUGAUGAGUCUUAGUGCAGACGAAACAGC [UAGUGC]	0.371 ± 0.0073	1.949 ± 0.011	0.493 ± 0.034	2 ± 0.051
GCUGUCACCGGUGCUUGGUACGUUAUAUUCAGCCGGUCUGAUGAGUCUGAGUGGAGACGAAACAGC [GAGUGG]	0.427 ± 0.07	1.914 ± 0.0062	0.493 ± 0.18	2.01 ± 0.046
GCUGUCACCGGUGCUUGGUACGUUAUAUUCAGCCGGUCUGAUGAGUCUUAGUGGAGACGAAACAGC [UAGUGG]	-0.0676 ± 0.055	1.56 ± 0.021	0.623 ± 0.023	1.89 ± 0.046
GCUGUCACCGGUGCUUGGUACGUUAUAUUCAGCCGGUCUGAUGAGUCUAAGUGUAGACGAAACAGC [AAGUGU]	0.173 ± 0.16	1.94 ± 0.015	0.597 ± 0.37	2.01 ± 0.029
GCUGUCACCGGUGCUUGGUACGUUAUAUUCAGCCGGUCUGAUGAGUCUGAGUGUAGACGAAACAGC [GAGUGU]	0.00433 ± 0.11	1.97 ± 0.01	0.322 ± 0.027	2.04 ± 0.025
GCUGUCACCGGUGCUUGGUACGUUAUAUUCAGCCGGUCUGAUGAGUCUCAGUUAAGACGAAACAGC [CAGUUA]	0.197 ± 0.022	1.95 ± 0.02	0.573 ± 0.13	1.99 ± 0.038
GCUGUCACCGGUGCUUGGUACGUUAUAUUCAGCCGGUCUGAUGAGUCUAAGUUAAGACGAAACAGC [AAGUUA]	0.382 ± 0.14	1.973 ± 0.0048	0.443 ± 0.016	2.01 ± 0.031
GCUGUCACCGGUGCUUGGUACGUUAUAUUCAGCCGGUCUGAUGAGUCUCAGUUCAGACGAAACAGC [CAGUUC]	-0.0369 ± 0.035	2.027 ± 0.017	-0.16 ± 0.081	1.983 ± 0.019
GCUGUCACCGGUGCUUGGUACGUUAUAUUCAGCCGGUCUGAUGAGUCUAAGUUGAGACGAAACAGC [AAGUUG]	0.479 ± 0.061	1.914 ± 0.013	0.582 ± 0.24	2.02 ± 0.054
GCUGUCACCGGUGCUUGGUACGUUAUAUUCAGCCGGUCUGAUGAGUCUGAGUUGAGACGAAACAGC [GAGUUG]	0.407 ± 0.032	1.968 ± 0.0093	0.387 ± 0.15	2.03 ± 0.039
